Assay results reported in paper PMC12416549 (2024).
Substitutions are numbered along the chain they refer to. In names and notes the source's numbering stands.

Biological target: T1, TNFR1 (Homo sapiens, UniProt P19438)
T1 chain: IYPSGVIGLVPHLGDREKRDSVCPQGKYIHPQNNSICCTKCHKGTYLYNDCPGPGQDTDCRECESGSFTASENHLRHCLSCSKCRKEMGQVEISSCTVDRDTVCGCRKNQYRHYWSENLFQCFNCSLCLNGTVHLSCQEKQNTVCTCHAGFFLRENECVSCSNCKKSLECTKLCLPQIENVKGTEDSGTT
Test: yeast display SC50

B1: L26R (designed binder)
chain: MTLQELLREEALRRAEAEAFRYALERLAEKFPEQKEYLLDLAEEIESQIRSLSGVDVEDVRKFLDKEWAWVKELLAEHPAELAEVEAARAARLAELRAEVEAKVAA
- apparent Kd (screen): 0.446 nM

B2: F63K (designed binder)
chain: B1 chain with R26L, F63K
- apparent Kd (screen): 5.31 nM

B3: E25G (designed binder)
chain: B1 chain with E25G, R26L
- apparent Kd (screen): 0.49 nM

B4: A19E (designed binder)
chain: B1 chain with A19E, R26L
- apparent Kd (screen): 0.956 nM

B5: P79E (designed binder)
chain: B1 chain with R26L, P79E
- apparent Kd (screen): 0.446 nM

B6: L27R (designed binder)
chain: B1 chain with R26L, L27R
- apparent Kd (screen): 0.49 nM

B7: S51H (designed binder)
chain: B1 chain with R26L, S51H
- apparent Kd (screen): 0.304 nM

B8: E101F (designed binder)
chain: B1 chain with R26L, E101F
- apparent Kd (screen): 0.593 nM

B9: E9W (designed binder)
chain: B1 chain with E9W, R26L
- apparent Kd (screen): 0.405 nM

B10: A11L (designed binder)
chain: B1 chain with A11L, R26L
- apparent Kd (screen): 2.05 nM

B11: S51E (designed binder)
chain: B1 chain with R26L, S51E
- apparent Kd (screen): 2.05 nM

B12: E29R (designed binder)
chain: B1 chain with R26L, E29R
- apparent Kd (screen): 0.49 nM

B13: I45W (designed binder)
chain: B1 chain with R26L, I45W
- apparent Kd (screen): 0.718 nM

B14: R21D (designed binder)
chain: B1 chain with R21D, R26L
- apparent Kd (screen): 0.539 nM

B15: Q34W (designed binder)
chain: B1 chain with R26L, Q34W
- apparent Kd (screen): 1.69 nM

B16: K66L (designed binder)
chain: B1 chain with R26L, K66L
- apparent Kd (screen): 0.49 nM

B17: K30V (designed binder)
chain: B1 chain with R26L, K30V
- apparent Kd (screen): 0.446 nM

B18: A91V (designed binder)
chain: B1 chain with R26L, A91V
- apparent Kd (screen): 0.539 nM

B19: L52N (designed binder)
chain: B1 chain with R26L, L52N
- apparent Kd (screen): 2.73 nM

B20: L93P (designed binder)
chain: B1 chain with R26L, L93P
- apparent Kd (screen): 1.69 nM

B21: E36L (designed binder)
chain: B1 chain with R26L, E36L
- apparent Kd (screen): 0.539 nM

B22: L75E (designed binder)
chain: B1 chain with R26L, L75E
- apparent Kd (screen): 0.653 nM

B23: K66E (designed binder)
chain: B1 chain with R26L, K66E
- apparent Kd (screen): 0.869 nM

B24: L3A (designed binder)
chain: B1 chain with L3A, R26L
- apparent Kd (screen): 2.73 nM

B25: E86D (designed binder)
chain: B1 chain with R26L, E86D
- apparent Kd (screen): 0.446 nM

B26: F20S (designed binder)
chain: B1 chain with F20S, R26L
- apparent Kd (screen): 1.05 nM

B27: A87H (designed binder)
chain: B1 chain with R26L, A87H
- apparent Kd (screen): 0.49 nM

B28: E33F (designed binder)
chain: B1 chain with R26L, E33F
- apparent Kd (screen): 0.956 nM

B29: A15F (designed binder)
chain: B1 chain with A15F, R26L
- apparent Kd (screen): 0.653 nM

B30: L74R (designed binder)
chain: B1 chain with R26L, L74R
- apparent Kd (screen): 12.5 nM

B31: R21P (designed binder)
chain: B1 chain with R21P, R26L
- apparent Kd (screen): 0.49 nM

B32: L64V (designed binder)
chain: B1 chain with R26L, L64V
- apparent Kd (screen): 13.8 nM

B33: E86A (designed binder)
chain: B1 chain with R26L, E86A
- apparent Kd (screen): 0.956 nM

B34: A80S (designed binder)
chain: B1 chain with R26L, A80S
- apparent Kd (screen): 0.869 nM

B35: P79W (designed binder)
chain: B1 chain with R26L, P79W
- apparent Kd (screen): 0.49 nM

B36: Q4M (designed binder)
chain: B1 chain with Q4M, R26L
- apparent Kd (screen): 0.49 nM

B37: A91D (designed binder)
chain: B1 chain with R26L, A91D
- apparent Kd (screen): 0.49 nM

B38: Y22A (designed binder)
chain: B1 chain with Y22A, R26L
- apparent Kd (screen): 0.79 nM

B39: V104T (designed binder)
chain: B1 chain with R26L, V104T
- apparent Kd (screen): 0.956 nM

B40: E9V (designed binder)
chain: B1 chain with E9V, R26L
- apparent Kd (screen): 0.869 nM

B41: Q4K (designed binder)
chain: B1 chain with Q4K, R26L
- apparent Kd (screen): 0.49 nM

B42: R61S (designed binder)
chain: B1 chain with R26L, R61S
- apparent Kd (screen): 0.79 nM

B43: I49H (designed binder)
chain: B1 chain with R26L, I49H
- apparent Kd (screen): 0.304 nM

B44: E86W (designed binder)
chain: B1 chain with R26L, E86W
- apparent Kd (screen): 2.73 nM

B45: K30S (designed binder)
chain: B1 chain with R26L, K30S
- apparent Kd (screen): 0.718 nM

B46: L12T (designed binder)
chain: B1 chain with L12T, R26L
- apparent Kd (screen): 0.718 nM

B47: E9G (designed binder)
chain: B1 chain with E9G, R26L
- apparent Kd (screen): 1.69 nM

B48: R21Y (designed binder)
chain: B1 chain with R21Y, R26L
- apparent Kd (screen): 0.49 nM

B49: E33R (designed binder)
chain: B1 chain with R26L, E33R
- apparent Kd (screen): 0.49 nM

B50: A17T (designed binder)
chain: B1 chain with A17T, R26L
- apparent Kd (screen): 0.446 nM

B51: V60P (designed binder)
chain: B1 chain with R26L, V60P
- apparent Kd (screen): 12.5 nM

B52: L38H (designed binder)
chain: B1 chain with R26L, L38H
- apparent Kd (screen): 0.79 nM

B53: G54H (designed binder)
chain: B1 chain with R26L, G54H
- apparent Kd (screen): 11.4 nM

B54: E43Q (designed binder)
chain: B1 chain with R26L, E43Q
- apparent Kd (screen): 0.956 nM

B55: K30R (designed binder)
chain: B1 chain with R26L, K30R
- apparent Kd (screen): 0.593 nM

B56: R8T (designed binder)
chain: B1 chain with R8T, R26L
- apparent Kd (screen): 0.79 nM

B57: Y37K (designed binder)
chain: B1 chain with R26L, Y37K
- apparent Kd (screen): 0.539 nM

B58: L3N (designed binder)
chain: B1 chain with L3N, R26L
- apparent Kd (screen): 24.4 nM

B59: A98R (designed binder)
chain: B1 chain with R26L, A98R
- apparent Kd (screen): 0.653 nM
